Tested on: Escherichia coli TOP10
Test: shrunken log2 fold change of peptide-encoding DNA abundance (4.5 h post-induction vs induction); higher = less antimicrobial activity (less host growth inhibition)
Conditions: time post-induction: 4.5 h; library: site-saturation at positions 5, 18, 19, 20
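Note: peptides expressed intracellularly from a pBAD plasmid library in pooled LB shake-flask culture, induced with 0.3% L-arabinose, DNA abundance read by NGS, three biological replicates, DESeq2 with apeglm shrinkage.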

Row | Sequence | shrunken log2 fold change
1 | RRIRVRPPRLPRPRPRPYDWPRP | -0.206
2 | RRIRRRPPRLPRPRPRPGCWPRP | 0.561
3 | RRIRTRPPRLPRPRPRPNDFPRP | -0.205
4 | RRIRMRPPRLPRPRPRPLIRPRP | -0.373
5 | RRIRHRPPRLPRPRPRPRRFPRP | 0.379
6 | RRIRYRPPRLPRPRPRPCNFPRP | -0.303
7 | RRIRLRPPRLPRPRPRPSQRPRP | -0.00321
8 | RRIRLRPPRLPRPRPRPNEYPRP | -0.321
9 | RRIRCRPPRLPRPRPRPGCGPRP | 0.545
10 | RRIRDRPPRLPRPRPRPDLRPRP | -0.0435
11 | RRIRVRPPRLPRPRPRPFMDPRP | -0.36
12 | RRIRCRPPRLPRPRPRPIPHPRP | -0.744
13 | RRIRWRPPRLPRPRPRPYMQPRP | -0.422
14 | RRIRLRPPRLPRPRPRPDTPPRP | 0.0881
15 | RRIRIRPPRLPRPRPRPVIMPRP | -0.334
16 | RRIRRRPPRLPRPRPRPYYCPRP | -0.132
17 | RRIRYRPPRLPRPRPRPADYPRP | 3.66
18 | RRIRRRPPRLPRPRPRPSLAPRP | 0.89
19 | RRIRSRPPRLPRPRPRPHDPPRP | -0.0194
20 | RRIRFRPPRLPRPRPRPFCVPRP | -0.722
21 | RRIRDRPPRLPRPRPRPKFFPRP | 0.136
22 | RRIRGRPPRLPRPRPRPFFDPRP | 0.541
23 | RRIRKRPPRLPRPRPRPCMTPRP | 0.0372
24 | RRIRWRPPRLPRPRPRPATDPRP | 0.258
25 | RRIRLRPPRLPRPRPRPCVWPRP | -0.0182

Row | Sequence | shrunken log2 fold change
26 | RRIRQRPPRLPRPRPRPGLRPRP | 0.285
27 | RRIRKRPPRLPRPRPRPEVRPRP | 1.86
28 | RRIRFRPPRLPRPRPRPWLYPRP | -1.2
29 | RRIRQRPPRLPRPRPRPPFGPRP | 0.219
30 | RRIRQRPPRLPRPRPRPSWCPRP | -0.141
31 | RRIRPRPPRLPRPRPRPQNMPRP | -0.358
32 | RRIRERPPRLPRPRPRPCRFPRP | -0.455
33 | RRIRLRPPRLPRPRPRPVSLPRP | -0.0897
34 | RRIRPRPPRLPRPRPRPQHQPRP | -0.226
35 | RRIRLRPPRLPRPRPRPELPPRP | -0.0217
36 | RRIRPRPPRLPRPRPRPLCVPRP | -0.214
37 | RRIRRRPPRLPRPRPRPMSPPRP | -0.185
38 | RRIRVRPPRLPRPRPRPCRFPRP | -0.464
39 | RRIRNRPPRLPRPRPRPESYPRP | -0.0446
40 | RRIRCRPPRLPRPRPRPYMPPRP | -0.404
41 | RRIRMRPPRLPRPRPRPQGIPRP | -0.154
42 | RRIRQRPPRLPRPRPRPCFRPRP | -0.155
43 | RRIRKRPPRLPRPRPRPVLYPRP | -0.0796
44 | RRIRPRPPRLPRPRPRPEITPRP | 0.175
45 | RRIRQRPPRLPRPRPRPWCNPRP | -0.00865
46 | RRIRNRPPRLPRPRPRPSDLPRP | -0.256
47 | RRIRFRPPRLPRPRPRPLELPRP | 0.0344
48 | RRIRFRPPRLPRPRPRPYPWPRP | -0.9
49 | RRIRMRPPRLPRPRPRPMTNPRP | 0.165
50 | RRIRIRPPRLPRPRPRPVMDPRP | -0.184

Row | Sequence | shrunken log2 fold change
51 | RRIRLRPPRLPRPRPRPGNYPRP | 0.0343
52 | RRIRDRPPRLPRPRPRPKPKPRP | 0.254
53 | RRIRHRPPRLPRPRPRPPTHPRP | -0.117
54 | RRIRWRPPRLPRPRPRPTCSPRP | 0.0967
55 | RRIRQRPPRLPRPRPRPAFDPRP | -0.094
56 | RRIRIRPPRLPRPRPRPNEMPRP | -0.0277
57 | RRIRGRPPRLPRPRPRPRKWPRP | 0.413
58 | RRIRYRPPRLPRPRPRPAGLPRP | 0.125
59 | RRIRNRPPRLPRPRPRPFFNPRP | -0.725
60 | RRIRARPPRLPRPRPRPLQSPRP | 0.625
61 | RRIRARPPRLPRPRPRPCVPPRP | -0.0952
62 | RRIRIRPPRLPRPRPRPHRKPRP | -0.551
63 | RRIRYRPPRLPRPRPRPLGGPRP | -0.0546
64 | RRIRDRPPRLPRPRPRPLDMPRP | -0.08
65 | RRIRSRPPRLPRPRPRPNQQPRP | 0.121
66 | RRIRHRPPRLPRPRPRPRIMPRP | -0.577
67 | RRIRIRPPRLPRPRPRPPPYPRP | -0.177
68 | RRIRMRPPRLPRPRPRPRVCPRP | 0.545
69 | RRIRFRPPRLPRPRPRPHMDPRP | -1.29
70 | RRIRGRPPRLPRPRPRPPLWPRP | 1.09
71 | RRIRNRPPRLPRPRPRPANAPRP | 0.259
72 | RRIRPRPPRLPRPRPRPYNVPRP | -0.0809
73 | RRIRNRPPRLPRPRPRPHGAPRP | 0.245
74 | RRIRQRPPRLPRPRPRPLSVPRP | -0.539
75 | RRIRLRPPRLPRPRPRPEDYPRP | -0.0202

Row | Sequence | shrunken log2 fold change
76 | RRIRKRPPRLPRPRPRPCGSPRP | -0.0192
77 | RRIRCRPPRLPRPRPRPFCSPRP | -0.008
78 | RRIRQRPPRLPRPRPRPVSNPRP | -0.0478
79 | RRIRDRPPRLPRPRPRPDAKPRP | 0.162
80 | RRIRRRPPRLPRPRPRPCDRPRP | 0.0985
81 | RRIRARPPRLPRPRPRPSTGPRP | -0.131
82 | RRIRVRPPRLPRPRPRPEADPRP | 0.0974
83 | RRIRGRPPRLPRPRPRPYIGPRP | 0.018
84 | RRIRKRPPRLPRPRPRPMFGPRP | 0.112
85 | RRIRIRPPRLPRPRPRPQYLPRP | -0.346
86 | RRIRNRPPRLPRPRPRPQMYPRP | -0.864
87 | RRIRARPPRLPRPRPRPEDNPRP | 0.132
88 | RRIRLRPPRLPRPRPRPAESPRP | 0.197
89 | RRIRWRPPRLPRPRPRPIAAPRP | 0.976
90 | RRIRQRPPRLPRPRPRPNPRPRP | 0.0565
91 | RRIRCRPPRLPRPRPRPGTAPRP | 0.292
92 | RRIRDRPPRLPRPRPRPDCHPRP | 0.469
93 | RRIRARPPRLPRPRPRPEWTPRP | 0.591
94 | RRIRQRPPRLPRPRPRPDWIPRP | -0.035
95 | RRIRERPPRLPRPRPRPNTYPRP | -0.667
96 | RRIRNRPPRLPRPRPRPTGNPRP | -0.104
97 | RRIRLRPPRLPRPRPRPEICPRP | -0.0881
98 | RRIRARPPRLPRPRPRPTIYPRP | 0.0113
99 | RRIRWRPPRLPRPRPRPDHIPRP | -0.0546
100 | RRIRLRPPRLPRPRPRPQLIPRP | -0.0529

Row | Sequence | shrunken log2 fold change
101 | RRIRARPPRLPRPRPRPKCGPRP | 0.432
102 | RRIRGRPPRLPRPRPRPRVYPRP | 0.35
103 | RRIRWRPPRLPRPRPRPEWIPRP | 0.475
104 | RRIRDRPPRLPRPRPRPNLEPRP | 0.27
105 | RRIRERPPRLPRPRPRPGSMPRP | -0.343
106 | RRIRMRPPRLPRPRPRPWFYPRP | -0.418
107 | RRIRVRPPRLPRPRPRPKMIPRP | -0.162
108 | RRIRERPPRLPRPRPRPEGPPRP | 0.23
109 | RRIRYRPPRLPRPRPRPAQWPRP | -0.294
110 | RRIRRRPPRLPRPRPRPVPWPRP | 0.573
111 | RRIRVRPPRLPRPRPRPKWCPRP | 0.289
112 | RRIRQRPPRLPRPRPRPGRMPRP | 0.0366
113 | RRIRNRPPRLPRPRPRPYHLPRP | 0.0195
114 | RRIRPRPPRLPRPRPRPNQEPRP | 0.0875
115 | RRIRSRPPRLPRPRPRPEPAPRP | 0.912
116 | RRIRLRPPRLPRPRPRPSDQPRP | -0.18
117 | RRIRVRPPRLPRPRPRPKHWPRP | 0.151
118 | RRIRWRPPRLPRPRPRPRCIPRP | -0.036
119 | RRIRSRPPRLPRPRPRPQGYPRP | -0.139
120 | RRIRCRPPRLPRPRPRPTSMPRP | -0.308
121 | RRIRPRPPRLPRPRPRPYDDPRP | -0.0211
122 | RRIRWRPPRLPRPRPRPNQYPRP | -0.113
123 | RRIRYRPPRLPRPRPRPLWYPRP | -0.824
124 | RRIRYRPPRLPRPRPRPWTQPRP | -0.343
125 | RRIRPRPPRLPRPRPRPVCIPRP | -0.122
